The record followed here is patent publication US20160053014A1 (SORRENTO THERAPEUTICS, published 2016).

Assay [1] has as its target T1, human CXCR5 (human, UniProt P32302 1-372).
T1 construct: whole, on cells; also called hu-CHO; CHO-CXCR5 cells
T1 sequence (looked up): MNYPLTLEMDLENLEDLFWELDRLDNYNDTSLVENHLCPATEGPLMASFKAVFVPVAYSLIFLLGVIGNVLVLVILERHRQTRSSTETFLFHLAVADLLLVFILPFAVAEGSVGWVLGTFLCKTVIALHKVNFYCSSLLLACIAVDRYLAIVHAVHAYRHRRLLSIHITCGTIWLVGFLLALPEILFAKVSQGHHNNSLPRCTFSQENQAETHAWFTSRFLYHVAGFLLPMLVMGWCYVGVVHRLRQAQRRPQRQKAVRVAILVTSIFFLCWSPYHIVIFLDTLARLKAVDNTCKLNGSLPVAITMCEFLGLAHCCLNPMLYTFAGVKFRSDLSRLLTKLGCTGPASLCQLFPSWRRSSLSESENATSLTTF
Nature of the assay: flow cytometry on CHO-CXCR5 cells, IgG titration. The text has this: This example describes a cellular binding assay to determine the EC₅₀ for anti-CXCR5 antibodies binding to human CXCR5. […] In this example, CHO-CXCR5 cells were lifted from culture flasks using non-enzymatic Cell Dissociation Buffer—PBS based (Life Technologies #13151-014). Cells were resuspended in FACS Buffer (2% Fetal Bovine Serum in PBS) at 1×10⁶ cells/ml and […] were aliquoted into the wells of a 96-well plate. Plated cells were spun down and the supernatant discarded. Cells were resuspended in 30 μl FACS Buffer serially diluted concentrations of CXCR5 IgG in triplicate. Plates were incubated for 1 hr at 4° C. and then washed 2× with FACS Buffer. Cells were resuspended in 50 μl goat anti-human IgG (γ-chain specific)-PE conjugated secondary antibody (Southern Biotech #2040-09) diluted 1:500 in FACS Buffer. Cells were further incubated for 30 min at 4° C. and then washed 1× with FACS Buffer. The cells were resuspended in a final volume of 30 μl FACS Buffer and analyzed using the Intellicyt Flow Cytometer. Median fluorescence in the FL-2H channel was determined using FlowJo software and EC₅₀ value was determined by plotting the data in GraphPad Prism and analyzing using a variable slope non-linear regression.
(A flow cytometer gives signals particle by particle.)

For the next assay, the target named is T2, murine CXCR5 (murine, UniProt Q04683 1-374).
T2 construct: whole, on cells; Endogenous receptor on mouse spleen cells cultured with LPS
T2 sequence (looked up): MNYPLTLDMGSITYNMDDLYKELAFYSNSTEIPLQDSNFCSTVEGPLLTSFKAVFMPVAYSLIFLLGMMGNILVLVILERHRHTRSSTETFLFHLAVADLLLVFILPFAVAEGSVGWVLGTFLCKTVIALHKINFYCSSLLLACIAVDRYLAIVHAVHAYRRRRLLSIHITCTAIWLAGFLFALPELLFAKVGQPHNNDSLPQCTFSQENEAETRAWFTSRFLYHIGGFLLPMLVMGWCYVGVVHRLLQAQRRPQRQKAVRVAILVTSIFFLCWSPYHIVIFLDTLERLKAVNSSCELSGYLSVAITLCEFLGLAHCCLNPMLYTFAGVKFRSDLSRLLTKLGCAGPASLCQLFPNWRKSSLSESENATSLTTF
Nature of the assay: flow cytometry on LPS-cultured mouse spleen cells, IgG titration. The method, then:
In this example, mouse spleen cells were harvested from either C57B1/6 or athymic nu/nu mice. Cells were cultured at 2×10⁶ per ml with LPS at 10 micrograms per ml in RPMI+10% FCS for up to 4 days at 37° C. in 5% CO2. Cells were harvested, washed and resuspended in FACS Buffer (2% Fetal Bovine Serum in PBS) at 1×10⁶ cells/ml and 50 μl (0.5×10⁵ cells) were aliquoted into the wells of a 96-well plate. Plated cells were spun down and the supernatant discarded. Cells were resuspended in 30 μl FACS Buffer containing serially diluted concentrations of CXCR5 IgG in triplicate. Plates were incubated for 1 hr at 4° C. and then washed 2x with FACS Buffer. Cells were resuspended in 50 μl goat anti-human IgG (γ-chain specific)-PE conjugated secondary antibody (Southern Biotech #2040-09) diluted 1:500 in FACS Buffer. Cells were further incubated for 30 min at 4° C. and then washed 1× with FACS Buffer. The cells were resuspended in a final volume of 30 μl FACS Buffer and analyzed using the Intellicyt Flow Cytometer. Median fluorescence in the FL-2H channel was determined using FlowJo software and EC₅₀ value was determined by plotting the data in GraphPad Prism and analyzing using a variable slope non-linear regression.

The target of assay [2] is T1, human CXCR5. The experiment in a line: cell-based or functional assay.
In assay [3] the target is T1, human CXCR5. The experiment in a line: cell-based or functional assay. This is another data set of the same source.

B1: 12D3 (antibody, V domains shown)
VH: EVQLVESGGGLVKPGRSLRLSCAASGFTFSSYAMHWVRQAPGKGLEWVAVISYDGSNKYYADSVKGRFTISRDNSKNTLYLQMNSLRAEDTAVYYCARLRWLDYWGQGTLVTVSS
VL: QPVLTQPASVSGSPGQSIAISCTGTSSDVGSNNRVSWYQQHPGKAPKLMIYEVDKRPSGVSNRFSGSKSGNTASLTISGLQAEDEADYYCGTWDSSLSAYVFGTGTKLTVL
notes: tested as human IgG
As a reminder, the EC50 is the concentration giving half of the maximal effect. Low values mean an effect from little substance, high ones a need for much substance. As for B1, the EC50 is 1.3 nM with human CXCR5 [1] and 27 nM in the assay with murine CXCR5.

B2: 11A7 (antibody, human IgG1, V domains shown)
VH: EVQLVESGGGLVQPGGSLRLSCAASGFTVSSNYMSWVRQAPGKGLEWVSVIYSGGSTYYADSVKGRFTISRHNSKNTLYLQMNSLRAEDTAVYYCARGYVVWGQGTLVTVSS
VL: QPVLTQPPSVSKDLRQTATLTCTGNSNNVGNQGATWLQQHQGHPPKLLSYKNNNRPSGISERFSASRSGNTASLTITGLQPEDEADYYCSAWDSSLSAWVFGGGTQLTVL
notes: 'Antibody 11A7 is a fully human IgG1'
In the case of B2, in the assay with human CXCR5 [1], it took 0.9 nM to reach a half-maximal effect (EC50). In the assay with human CXCR5 [2], the “IC50 [nM] of mAbs in chemotaxis assay using HS-Sultan cells (25 nM CXCL13)” value was found to be 4.8 nM. The “IC50 [nM] of mAbs in calcium flux assay using CHO-CXCR5 cells (challenge with 9 nM CXCL13)” value with human CXCR5 [3] turned out to be 5 nM.

B3: 13E10 (antibody, V domains shown)
VH: EVQLVQSGAEVKKPGASLKISCRASGYTFTRNYIHWVRQAPGQGLEWLGIINPNGGSTRYSQKFQGRVTMTRDTSTRTVYMELSSLRSEDTAVYYCAREAPKYCSGSSCYSGGVDYWGQGTLVTVSS
VL: QPVLTQPLSASGTPGQRVTISCSGSSSNIGSNYVYWYQQLPGTAPKLLIYRNYQRPSGVPDRFSGSTSGTSASLAISGLRSEDEADYHCAAWDGSMRGWVFGGGTKLTVL
notes: tested as human IgG
Take B3: the EC50 in the assay with human CXCR5 [1] was found to be 0.7 nM; in the assay with murine CXCR5, 25 nM.

B4: 11G3 (antibody, V domains shown)
VH: EVQLVQSGGGVVQPGRSLRLSCAASGFTFSSYAMHWVRQAPGKGLEWVAVISYDGSNKYYADSVKGRFTISRDNSKNTLYLQMNSLRAEDTAVYYCARLTRGSDYYGSGRSMNDYWGQGTLVTVSS
VL: DIVMTQTPLSLPVTLGQPASISCRSSQSLVHSDGNTYLNWFQQRPGQSPRRLIYKVSNRDSGVPDRFSGSGSGTDFTLKISRVEAEDVGVYYCMQGTHWPPTFGQGTKVEIK
notes: tested as human IgG
For B4, the EC50 was determined as 2.6 nM with human CXCR5 [1] and 37 nM with murine CXCR5.

B5: 11E3 (antibody, V domains shown)
VH: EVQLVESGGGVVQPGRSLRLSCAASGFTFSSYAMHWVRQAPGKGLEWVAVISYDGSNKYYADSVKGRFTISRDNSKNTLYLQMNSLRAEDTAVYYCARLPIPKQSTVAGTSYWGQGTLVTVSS
VL: LPVLTQPASVSGSPGQSITISCTGTSSDVGGYNYVSWYQQHPGNAPKLMIYDVSNRPSGVSNRFSGSKSGNTASLTISGLQAEDEADYYCSSYTSSSTLYVFGTGTKLTVL
notes: tested as human IgG
Take B5: the figures for the EC50 with human CXCR5 [1] and with murine CXCR5 were 1.8 nM and 11 nM, respectively.

B6: 15G11 (antibody, V domains shown)
VH: QVQLVQSGGGVVQPGGSLRLSCAASGFAFNRYGMHWVRQAPGQGLEWVAVISYDGSLKYYADSVKGRFTISRDNSNNTLYLQMNSLSADDTAVYYCAKGGAALDSWGQGTLVTVSS
VL: DVVMTQSPLSSPVTLGQPASISCRSSQSLVHSDGTTYLSWLQQRPGQPPRLLIYKISNRFSGVPDRFSGSGAGTDFTLKISRVEAEDVGVYYCMQTTQFPPMFGQGTKVEIK
notes: tested as human IgG
As for B6, the EC50 with human CXCR5 [1] was 0.4 nM; in the assay with murine CXCR5 it was 4.8 nM.

B7: 14E5 (antibody, V domains shown)
VH: EVQLVESGGGVVQPGRSLRLSCAASGFTFSSYGMHWVRQAPGKGLEWVAVISYDGSNKYYADSVKGRFTISRDNSKNTLYLQMNSLRAEDTAVYYCAKVYSRGSDYWGQGTLVTVSS
VL: QSVLTQPASVSGSPGQSITISCTGTSSDVGGYNYVSWYQQHPGKAPKLLIYDVSRRPSGISSRFSGSKSGNTASLTISGLQTEDDGDYYCLSYTTSRAVVFGGGTKLTVL
notes: tested as human IgG
Regarding B7, the values for the EC50 with human CXCR5 [1] and in the assay with murine CXCR5 were 0.3 nM and 2.8 nM, respectively.

B8: 16F9 (antibody, V domains shown)
VH: EVQLVESGGEVKKPGASVKLSCKSSGYTFTSYYMHWVRQAPGQGLEWMGIINPSGGSTSSAQKFQGRVTMTRDTSTRTVYMELSSLRSEDTAVYYCARGAPNWNYARTLFDYWGQGTLVTVSS
VL: SYELTQPRSVSGSPGQSVTISCTGTSSDVGGYNSVSWYQQHPGKAPKLMIYDVSKRPSGVPDRFSGSKSGNTASLTISGLQAEDEADYYCSSYSSSTTHVVFGGGTKLTVL
notes: tested as human IgG
In the case of B8, the EC50 in the assay with human CXCR5 [1] was determined as 0.7 nM; with murine CXCR5, 3.1 nM.

B9: 13F9 (antibody, V domains shown)
VH: EVQLLESGGGLIQPGGSLRLSCAASGFIFSRYGMHWVRQAPGKGLEWVAVTSYDGRSKYYTDSVQGRFTISRDNSKNTLDLQMNSLRAEDTAVYYCARLHTVGPWHFDLWGRGTLVTVSS
VL: SYELTQPRSVSGSPGQSVTISCTGTSSDVGGYNYVSWYQQHPGKVPKLMIYEVSNRPSGVSNRFSGSKSGNAASLTISGLQAEDEADYYCSSYTSSSTLVFGGGTKLTVL
notes: tested as human IgG
Turning to B9, the EC50 was found to be 1.6 nM with human CXCR5 [1] and 23 nM in the assay with murine CXCR5.

B10: 16F8 (antibody, V domains shown)
VH: EVQLLESGGGLVQPGGSLRLSCAASGFTFSSYGMHWVRQAPGKGLEWVAVISYDGSNKYYADSVKGRFTISRDNSKNTLYLQLNSLRAEDTAVYYCARGQNLDYWGQGTLVTVSS
VL: QPVLTQPASVSGSPGQSITISCTGTSSDVGGYNYISWYQQHPGKAPKLMIYEVSNRPSGVSNRFSGSKSGNTASLTISGLQAEDEADYYCSSYRSSSTQVFGGGTKLTVL
notes: tested as human IgG
In the case of B10, the EC50 with human CXCR5 [1] was found to be 3.6 nM; with murine CXCR5 it was 15 nM.
